Melting temperature (Tm) of the temperature-induced Gn/Gc dissociation and melting temperature (Tm) of (Gn/Gc)4 dissociation data for 1 substance are collected here from patent US11723968B2.

For test [1], the target named is Andes virus glycoprotein Gc, wild type (Andes virus (Andes orthohantavirus CHI-7913 isolate)).
Test [2] shares this target. This is another data set of the same source.

In test [1], Andes virus glycoprotein Gn, wild type gave a melting temperature (Tm) of the temperature-induced Gn/Gc dissociation of 37.7 ° C. This substance also showed a melting temperature (Tm) of (Gn/Gc)4 dissociation in test [2] of 36.3 ° C.
